Test results from US20180274003.

Key:
Peptide 3 YKNHV = target: T1, Peptide 3 YKNHV
T1 chain: YKNHV

[1] = target: T2, Peptide 2 YKN-glc-V (depsipeptide 2)
T2 chain: YKNXV

Peptide 4 YKNGV = target: T3, Peptide 4 YKNGV
T3 chain: YKNGV

[2] = target: T4, Peptide 1 YKN-thioglc-V (thiodepsipeptide 1)
T4 chain: YKNXV

B1: butelase 1 (protein)
chain: VEGTRWAVLVAGSKGYVNYRHQADVCHAYQILKKGGLKDENIIVFMYDDIAYNESNPHPGVIINHPYGSDVYKGVPKDYVGEDINPPNFYAVLLANKSALTGTGSGKVLDSGPNDHVFIYYTDHGGAGVLGMPSKPYIAASDLNDVLKKKHASGTYKSIVFYVESCESGSMFDGLLPEDHNIYVMGASDTGESSWVTYCPLQHPSPPPEYDVCVGDLFSVAWLEDCDVHNLQTETFQQQYEVVKNKTIVALIEDGTHVVQYGDVGLSKQTLFVYMGTDPANDNNTFTDKNSLGTPRKAVSQRDADLIHYWEKYRRAPEGSSRKAEAKKQLREVMAHRMHIDN
**Q.** For B1, which Km (Peptide 3 YKNHV) is on record?
**A.** Its Km is 300 µM.

**Q.** And the kcat (Peptide 3 YKNHV)?
**A.** The kcat was 4.1 s⁻¹.

**Q.** What about the kcat/Km (Peptide 3 YKNHV) of the same protein?
**A.** The kcat/Km was 13500 M⁻¹ s⁻¹.

**Q.** And the Km [1]?
**A.** The Km was 740 µM.

**Q.** And the kcat [1]?
**A.** The kcat was 12.4 s⁻¹.

**Q.** And the kcat/Km [1]?
**A.** Its kcat/Km is 16800 M⁻¹ s⁻¹.

**Q.** What about the Km (Peptide 4 YKNGV) of the same protein?
**A.** Its Km is 880 µM.

**Q.** What about the kcat (Peptide 4 YKNGV) of the same protein?
**A.** Its kcat is 7.9 s⁻¹.

**Q.** And the kcat/Km (Peptide 4 YKNGV)?
**A.** Its kcat/Km is 8900 M⁻¹ s⁻¹.

**Q.** And the Km [2]?
**A.** The Km was 2760 µM.

**Q.** And the kcat [2]?
**A.** Its kcat is 56.5 s⁻¹.

**Q.** And the kcat/Km [2]?
**A.** The kcat/Km was 20500 M⁻¹ s⁻¹.
